The values below come from patent publication US20250206836A1 (ONA THERAPEUTICS S L, published 2025).

Assay [1] concerns the target T1, purified biotin-tagged human CD36 (human, UniProt P16671 30-439, limits assumed, biotin tag, site not stated). The experiment in a line: AlphaScreen competition; competitor FA6-152 on acceptor beads. Background: In Alpha technology, singlet oxygen from a donor bead excites a nearby acceptor bead.
Assay [2] deals with T2, human CD36 (on HEK 293 or SCC25 cells) (human, UniProt P16671 2-472). The experiment in a line: cell-based or functional assay.
T2 sequence (P16671 2-472 limits assumed): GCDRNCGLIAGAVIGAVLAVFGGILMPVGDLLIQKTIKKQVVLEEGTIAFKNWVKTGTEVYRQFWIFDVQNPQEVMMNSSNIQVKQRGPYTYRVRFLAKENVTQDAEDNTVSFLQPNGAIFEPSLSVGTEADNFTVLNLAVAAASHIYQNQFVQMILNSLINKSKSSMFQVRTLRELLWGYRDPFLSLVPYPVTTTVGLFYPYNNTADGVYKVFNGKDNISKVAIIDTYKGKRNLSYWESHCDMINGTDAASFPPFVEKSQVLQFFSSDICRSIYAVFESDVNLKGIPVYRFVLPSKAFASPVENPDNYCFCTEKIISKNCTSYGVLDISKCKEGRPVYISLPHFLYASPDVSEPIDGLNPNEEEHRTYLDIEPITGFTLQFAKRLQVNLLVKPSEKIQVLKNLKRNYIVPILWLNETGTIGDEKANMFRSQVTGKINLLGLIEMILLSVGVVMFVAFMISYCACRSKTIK
Assay [3] has as its target T1, purified biotin-tagged human CD36. Put plainly: AlphaScreen competition; competitor 1G04 on acceptor beads.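 Also: streptavidin donor beads excited at 680 nm release singlet oxygen, and the light signal needs a nearby acceptor bead, with 30 min donor-bead incubation at 25 °C in the dark.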
Assay [4] addresses T3, nonhuman primate CD36 (on HEK 293 cells) (cynomolgus monkey / rhesus macaque, UniProt P16671 2-472 (human entry)).
T3 construct: also called non-human primate CD36 (cynomolgus)
The experiment in a line: FACS, HEK 293 cells transiently overexpressing CD36.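 Also: antibody binding to transfected cells detected by flow cytometry with a fluorescent anti-human secondary antibody, EC50 from a four-parameter sigmoidal fit of mean fluorescence intensity.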 On the technique in general: A flow cytometer gives signals particle by particle.
Description: (§1) After transiently transfecting the HEK 293 cells with a CD36 expression construct, cells were treated with three-fold serial dilution of each candidate antibody (10 dilutions starting at 500 nM). […] After incubation with the cells, an anti-human fluorescently labelled antibody was added to the cell media, allowed to incubate further, and the unbound antibody was washed off of the cells. Subsequently, the cells were subjected to FACS analysis to determine antibody binding to the cells. The results were fitted to a sigmoidal titration curve. Using a nonlinear regression model, the EC₅₀ values for each antibody were calculated from the GeoMFI and MFI values using the log(agonist) versus response (four parameters) fitting on the data transformed according to X=Log[X] in GraphPad PRISM.

The target of assay [5] is T2, human CD36 (on HEK 293 or SCC25 cells). The experiment in a line: FACS, SCC25 cells stably expressing human CD36.
Description: SCC25 cells were treated with 10-fold serial dilution of each antibody (5 dilutions starting at 100 nM). After incubation with the cells, an anti-human fluorescently labelled antibody was added to the cell media, allowed to incubate further, and the unbound antibody was washed off of the cells. Subsequently, the cells were subjected to FACS analysis to determine antibody binding to the cells. The results were fitted to a sigmoidal titration curve. Using a nonlinear regression model, the EC₅₀ values for each antibody were calculated from the GeoMFI and MFI values using the log(agonist) versus response (four parameters) fitting on the data transformed according to X=Log[X] in GraphPad PRISM.
The target is the same in assay [6]. Put plainly: FACS, HEK 293 cells transiently overexpressing CD36.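 Also: antibody binding to transfected cells detected by flow cytometry with a fluorescent anti-human secondary antibody, EC50 from a four-parameter sigmoidal fit of mean fluorescence intensity.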
Description: as §1
The target in assay [7] is T4, mouse CD36 (on HEK 293 cells) (mouse, UniProt Q08857 1-472).
T4 construct: also called Murine CD36
T4 sequence (Q08857 whole entry): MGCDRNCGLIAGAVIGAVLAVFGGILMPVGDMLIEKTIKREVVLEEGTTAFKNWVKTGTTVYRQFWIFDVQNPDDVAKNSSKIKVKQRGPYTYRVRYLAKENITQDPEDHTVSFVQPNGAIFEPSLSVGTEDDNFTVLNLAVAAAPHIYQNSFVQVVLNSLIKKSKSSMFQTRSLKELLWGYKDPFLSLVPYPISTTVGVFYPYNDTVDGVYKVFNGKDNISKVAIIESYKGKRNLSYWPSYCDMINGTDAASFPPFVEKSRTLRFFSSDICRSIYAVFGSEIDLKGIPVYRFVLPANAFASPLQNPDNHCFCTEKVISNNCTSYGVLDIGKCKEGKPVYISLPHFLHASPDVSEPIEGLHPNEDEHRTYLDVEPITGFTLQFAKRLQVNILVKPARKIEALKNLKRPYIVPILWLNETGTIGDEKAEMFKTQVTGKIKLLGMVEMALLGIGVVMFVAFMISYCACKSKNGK
Described as above.
Description: as §1

In assay [8] the target is T5, human CD36 (His-tagged) (human, UniProt P16671 30-439).
T5 construct: not shown: His tag
T5 sequence (P16671 30-439 limits assumed): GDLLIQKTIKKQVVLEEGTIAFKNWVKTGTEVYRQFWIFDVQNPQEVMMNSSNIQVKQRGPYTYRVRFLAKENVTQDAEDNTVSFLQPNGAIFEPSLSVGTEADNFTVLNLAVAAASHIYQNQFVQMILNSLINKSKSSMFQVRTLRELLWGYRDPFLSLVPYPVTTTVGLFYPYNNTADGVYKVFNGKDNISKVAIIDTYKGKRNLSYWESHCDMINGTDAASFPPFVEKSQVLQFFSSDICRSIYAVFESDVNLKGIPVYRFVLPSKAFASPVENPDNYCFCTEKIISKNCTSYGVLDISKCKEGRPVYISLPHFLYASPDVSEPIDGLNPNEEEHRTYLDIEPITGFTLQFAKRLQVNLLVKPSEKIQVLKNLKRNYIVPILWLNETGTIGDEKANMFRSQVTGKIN
Put plainly: SPR (Biacore T200), His-captured CD36, bivalent analyte model.

For assay [9], the target named is T2, human CD36 (on HEK 293 or SCC25 cells). Put plainly: FACS, SCC25 cells stably overexpressing human CD36.
Description: as §1
Assay [10] shares this target. Put plainly: cell-based or functional assay. The source holds these as a separate data set.
Assay [11] has the same target. Put plainly: cell-based or functional assay. This is another data set of the same source.

T1 sequence (P16671 30-439 limits assumed): as above
T3 sequence (P16671 other isoform, or with tags, fused parts or gaps limits assumed): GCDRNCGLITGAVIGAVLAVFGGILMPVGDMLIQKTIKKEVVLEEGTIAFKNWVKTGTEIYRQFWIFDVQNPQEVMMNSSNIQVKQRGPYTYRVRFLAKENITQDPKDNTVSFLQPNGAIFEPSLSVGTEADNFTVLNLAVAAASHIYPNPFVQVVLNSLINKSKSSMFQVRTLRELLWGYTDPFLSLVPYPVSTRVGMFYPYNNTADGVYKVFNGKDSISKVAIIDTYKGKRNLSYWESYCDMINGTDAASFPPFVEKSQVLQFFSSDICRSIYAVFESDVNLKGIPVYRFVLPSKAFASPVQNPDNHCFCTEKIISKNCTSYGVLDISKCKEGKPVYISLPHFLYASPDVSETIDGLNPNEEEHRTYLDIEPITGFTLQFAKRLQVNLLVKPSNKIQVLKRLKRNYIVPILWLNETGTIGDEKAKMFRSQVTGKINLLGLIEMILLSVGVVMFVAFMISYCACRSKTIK

B1: 15G04 (antibody, human IgG1, V domains shown)
VH: QVQLQQSGPELVKPGASVKISCKASGYTFSTSWMNWVKQRPGQGLEWIGRIYPGDGDTNYNGKFKGKATLTADTSSSTAYMQLSSLTSVDSAVYFCAREVYYGGYEDYGMDYWGQGTSVTVSS
VL: DVVMTQTPLSLPVSLGDQASISCRSSQSLLHTNVNTYLHWYLQKPGQSPKLLIYKVSNRFSGVPDRFSGSGSGTDFTLKISRVEAEDLGVYFCSQSTHVPYTFGGGTKLEIK
notes: Chimeric: mouse variable regions on human IgG1 LALA (L234A/L235A); also called 015G04
Usually EC50 stands for the concentration at which the effect is half-maximal. As to B1, the EC50 in [1] was found to be 5.65 nM; in assay [3], 0.41 nM; in assay [4], 2.2 nM. In assay [2], the “IC50 of fatty acid uptake inhibition (BODIPY FL C16, HEK hCD36 cells)” value (“IC50 of fatty acid uptake inhibition” for short) was greater than 1000 nM.

B2: 1G07 (antibody, V domains shown)
VH: QVQLKQSGADLVRPGASVKLSCKASGYTFTDYYINWVKQRPGQGLEWIARIYPGSGNTYYNEKFKGKATLTAEKSSSTAYMQLSSLTSEDSAVYFCARGIGGGFGMDYWGQGTSVTVSS
VL: SIVMTQTPKFLLVSAGDRITITCKASQSVSDDVAWYQQKPGQSPKLLIYYASNRYTGVPDRFTGSGYGTDFTFTISTVQAEDLAVYFCQQDYSSPLTFGAGTKLEIK
notes: also called SPLE
For the molecule B2, in assay [5], the EC50 stood at 0.47 nM.

B3: 29G04 (antibody, human IgG1, V domains shown)
VH: QVQLQQSGTELVKPGASVKLSCKASGYTFTSYWMHWVKQRPGQGLEWIGEIDPSDSHTNYNQKFKGKATLTVDKSSSTAYMQLSSLTSEDSAVYYCAPIYYGLDNWGQGTTLTVSS
VL: DIVLTQSQKFMSTSVGDRVSVTCKASQNVGTNVAWYQQKPGQSPKALIYSASYRYSGVPDRFTGSGSGTDFTLTISNVQSEDLAEYFCQQYNSYPLTFGAGTKLELK
notes: Chimeric: mouse variable regions on human IgG1 LALA (L234A/L235A); also called 029G04
On to B3, for which the EC50 in assay [1] is 33.8 nM; in [3] it was 0.37 nM; in assay [6], 0.36 nM; in [4] it was 0.32 nM. Also, the “IC50 of fatty acid uptake inhibition” value in [2] was determined as 0.08 nM.

B4: 6G04 (antibody, human IgG1, V domains shown)
VH: QVQLQQSGAELVMPGASVKMSCKASGYTFTDYWMHWVKQRPGQGLEWIGSIDTSDSYTTYSQKFKGKATLTVDESSSTAYMELARLTSEDSAIYYCVRGEDYEGTWFAYWGQGTLVTVSA
VL: ETTVTQSPASLSVATGEKVTIRCITSTDIDDDMNWYQQKPGEPPKLLISEGNTLRPGVPSRFSSSGYGTDFVFTIENTLSEDVADYYCLQSDNMPLTFGAGTKLELK
notes: Chimeric: mouse variable regions on human IgG1 LALA (L234A/L235A); also called 06G04; 006G04
What is called koff is the rate constant with which the complex falls apart. As a reminder, the kon is the rate constant with which the complex forms. For the molecule B4, the EC50 was determined as 1040 nM in assay [1]; 1.15 nM in [3]; 1.51 nM in [7]; 0.53 nM in assay [6]; 4.85 nM in assay [4]; 0.56 nM in assay [9]. Besides, the “IC50 of fatty acid uptake inhibition” value in assay [2] was 0.1 nM. The Kd in [8] was found to be 0.51 nM. This molecule also had a koff in [8] of 0.0002 s⁻¹. This molecule displayed a kon in [8] of 390000 M⁻¹ s⁻¹. Moreover, the “IC50 of oxLDL uptake inhibition (DiI-oxLDL, SCC25 cells)” value in assay [10] is 0.27 nM. For the same molecule, in [11], the “Percent Fatty Acid Uptake Inhibition” value was found to be 35.1%.

B5: 13G04 (antibody, human IgG1, V domains shown)
VH: QVQLQQSGAELVRPGASVKLSCKASGYTFTSYWMNWVKQRPGQGLEWIGMIDPSDNETHYNQMFKDKATLTVDKSSSTAYMQLSSLTSEDSAVYYCARSDYGNGYSFYLDVWGAGTTVTVSS
VL: DIVLTQSPASLAVSLGQRATISCRASESVDSYGNSFMHWYQQKPGQPPKLLIYRASNLESGIPARFSGSGSRTDFTLTINPVEADDVATYYCQQSNEDPWTFGGGTKLEIK
notes: Chimeric: mouse variable regions on human IgG1 LALA (L234A/L235A); also called 013G04
In the case of B5, the EC50 stood at 46.8 nM in assay [1]; 0.17 nM in assay [3]; 5.93 nM in [7]; 0.31 nM in assay [6]; 1.06 nM in assay [4]; 0.26 nM in [9]. In [2], the “IC50 of fatty acid uptake inhibition” value was 0.2 nM. The molecule further had a Kd in assay [8] of 1.5 nM. In [8], this molecule displayed a koff of 0.0037 s⁻¹. For the same molecule, the kon in [8] turned out to be 2.4e+06 M⁻¹ s⁻¹. In addition, the “IC50 of oxLDL uptake inhibition (DiI-oxLDL, SCC25 cells)” value in assay [10] was 0.26 nM. Also, the “Percent Fatty Acid Uptake Inhibition” value in [11] came out at 52.8%.
